The text below walks through data of the nanobody polyreactivity screen of Harvey et al. (2022).

A short description of this data set: yeast display, Sf9 membrane polyspecificity reagent, FACS + sequencing; frameworks hold sequencing errors. The method in brief:
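After 36–48 hours of galactose induction, yeast (Saccharomyces cerevisiae BJ5465) displaying a synthetic nanobody library were stained at 4 °C for 1 hour with 10% biotinylated, detergent-solubilized Sf9 membrane reagent. Streptavidin microbeads enriched the stained cells before FACS sorting into low and high (top ~1%) gates on anti-HA and streptavidin fluorescence. Each clone's polyreactivity label reflects its gate of origin.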
Regarding “QVQLVESGGGLVQVGGSLRLSCAASGRTFWWYAMGWYRQAPGKERELVAAISRGSTNYADSVKGRFTISRDNAKNTVYLQMNSLKPEDTAVYYCKAVSLYQSHDYDYWGQGTQVTVSS”, the “polyreactivity (PSR sort gate)” value is “low polyreactivity”.

As to “QVQLVESGGGLVQVGGSLRLSCAASGRTFYDYAMGWYRQAPGKERELVAAITWSGGSTYYADSVKGRFTISRDNAKNTVYLQMNSLKPEDTAVSYCAKGGSYQSRYDYWGQGTQVTVSS”, the “polyreactivity (PSR sort gate)” value was “low polyreactivity”. In the case of “QVQLVESGGGLYQAGGSLRLSCAASGFIFDPYARGWYRQAPGKEMELVASITWYGGRTYYADSVKGRFTISRDNAKNTVYLQMNSLKPEDPAVYYCAARGYTVWDDYWGQGTQVTVSS”, the “polyreactivity (PSR sort gate)” value is recorded as “high polyreactivity”. Regarding “QVQLVESGGGLYQAGGSLRLSCAASGFILSTNVMGWYRQAPGKEREKVAAISARGGSTYYADSVKGRFTISRDNAKNTVYLQMNILKPEDTAVYYCAARVYVSRSKRLNYWGQGTQVTVSS”, the “polyreactivity (PSR sort gate)” value was “high polyreactivity”. “QVQLVESGGGRDQAGGSLRLSCAASGSTFNGYAMGWYRQAPGKERELVAAISSRGGSTNYADSVKGRFTISRDNAKKTVYLQMNSLKPEDTAVYYCNAVYRRSRSVGSCFDDWGQVTQVTVSS”: the “polyreactivity (PSR sort gate)” value is recorded as “high polyreactivity”.

In the case of “QVQLVESGGGSVQAGGSLRLSCAASGSTFQTNAMGWYRQAPGKERELVAAISRTGGRTYYADSVKGRFTISRDNAKNTVYLQMNSLKPEDTAVYYCAASAWIRYNNRDGYGYWGQGTQVTVSS”, the “polyreactivity (PSR sort gate)” value is “high polyreactivity”.

In the case of “QVQLVESGGGSVQAGGSLRLSCAASGSTFQYYDMGWYRQAPGKERELVASITGSGDSTYYADSVKGRFTISRDNAKNTVYLQLNSLKPEDTAVYYCAAQNTWSGDYDYWGQGTQVTVSS”, the “polyreactivity (PSR sort gate)” value is recorded as “low polyreactivity”. On to “QVQLVESGGGSVQAGGSLRLSCAASGSTFWSYAMGWYRQAPGKERELVAVITGSDGRTFYADSVKGRFTISRDNANNTFFLQMNSLKPEDTAVYYCAADALFRATRFDRSTSEDDYWGQGTQVTVSS”, for which the “polyreactivity (PSR sort gate)” value is “low polyreactivity”. Regarding “QVQLVESGGGVVQAGGSLRISCAASGRTFGVYVMGWYRQAPGKERELVAAISSSGGRTYYADSVKGRFTISRDNAKNTFYLQMNSLKPEDTAVFYCNAVRRREERDGPPNQMDYWGQGTQVTVSS”, the “polyreactivity (PSR sort gate)” value is reported as “high polyreactivity”. As for “QVQLVESGGGVVQAGGSLRISCDASGRTFWNYAMGWYRQAPGLERELVAVIRFSDGSTYYADSVKGRFTISRDNAKNTVYLQRNSLKPEDTAVYYCAAKGPRRWGSGFDYWGQGTQVTVSS”, the entry is “low polyreactivity”; as for “QVQLVESGGGVVQAGGSLRLICAASGSTFGVYAMGWYRQAPGKERELFASISESGGNTYYADSVKGRFTISRDNAKNTVYLQMNSLKPDDTAVYYCNTDVVDVHYIQAYYWGQVTQVTVSS”, “low polyreactivity”. The value for “QVQLVESGGGVVQAGGSLRLSCAASGFIFWVYALGWYRQAPGKASELVAAITGRGGRTYYVDAVKGRFTISRDNAKNTVYLQMNSLKPEDTAVYYCNTVPYPAYLARMVYWGQGTQVTVTS” was “high polyreactivity”; that for “QVQLVESGGGVVQAGGSLRLSCAASGFTFVWHAMGWYRQAPGKEREFVAAISRRGGTTNYADSVKGRFTISRDNAKNTVYLQMNSLKPEDTAVYYCNIEPRYRSSGGMDYWGQGTQVTASS” was “high polyreactivity”. Regarding “QVQLVESGGGVVQAGGSLRLSCAASGIIFDYYAMGLYRQAPGKERELVAAITSGGSTYYADSVKGRFTISRDNAKNSVYFQMKSLKAEDTAVYFCAAVYPRVRYDYWGQGTQVNVSS”, the “polyreactivity (PSR sort gate)” value is given as “high polyreactivity”.

“QVQLVESGGGVVQAGGSLRLSCAASGITFQGDDMGWYRQAPGKEREFVAAITWNGGSTYYADSVKGRFTISRDHAKNTVFLQMNSLKPEDTAVYYCAADWSITYGDGGYWGQGTQVTVSS”: the “polyreactivity (PSR sort gate)” value is “low polyreactivity”.

For the sequence “QVQLVESGGGVVQAGGSLRLSCAASGRIFHDYAMGWYRQAPGKERELVAGMTSGVRTYYADSVKGRFTISRDNEKNTVYLQMNSLKPEDTAVYYCARRLSPLYDYDYWGQGTQVTVSP”, the “polyreactivity (PSR sort gate)” value is “low polyreactivity”. Consider “QVQLVESGGGVVQAGGSLRLSCAASGRIFRGYVMGWYRQAPRKERELVAAITWSGANTYYADSVKGRFTISRDNAMNTVYLQMNSLKPEDSAVYYCAATVSYWSTKEDDYWGLGTQVTVSS”, for which the “polyreactivity (PSR sort gate)” value is “low polyreactivity”. For “QVQLVESGGGVVQAGGSLRLSCAASGRIFVSNPMGWYRQAPGKERELVAAITSGGRTNYADSVKGRFTISRDNAKNTVYLQMNSLKPEDTAVYYCNARGYSSRGFRRYSTKYDYWGQGTQVTVSS”, the “polyreactivity (PSR sort gate)” value is on record as “high polyreactivity”. Turning to “QVQLVESGGGVVQAGGSLRLSCAASGRTFSYYAMGWYRQSPGKERELVATISYSTGNTNYADSVKGRFTISRDNAKNTVYLQMNSLKPEDTAVYYCAADFSPFVGETYWKYDYWGQGTQVTVSS”, the “polyreactivity (PSR sort gate)” value is on record as “low polyreactivity”. Consider “QVQLVESGGGVVQAGGSLRLSCAASGRTFWRYAMGWYRQAPGKERELVAAITSGGGSTYYADSVKGRFTISRDNAKNTVYLQMNSLKPEDTAVYYCNRAGRGSSFKGDYWGQGTQVTVSS”, for which the “polyreactivity (PSR sort gate)” value is “high polyreactivity”. In the case of “QVQLVESGGGVVQAGGSLRLSCAASGRTIDPKAMGWYRQAPGKERELVAAITRTGVRTYYADSVKGRFTISRDNAKNTVYLQLNILKPEYTAVYYCNRYGARSNDYWGQGTQVSVSS”, the “polyreactivity (PSR sort gate)” value was “low polyreactivity”. On to “QVQLVESGGGVVQAGGSLRLSCAASGRTIWSNAMGWYRQAPGKERELVAAISRTGGRTYYADSVKGRFTISRDNAKNTVYLQMNSLKREDTAVYYCATGSGVYDYWGQGTQLTVSS”, for which the “polyreactivity (PSR sort gate)” value is on record as “high polyreactivity”. On to “QVQLVESGGGVVQAGGSLRLSCAASGSTAIYYTMGWYRQAPGKERELVAYADSVKGRFTISRDNAKTTVYLQMNSLKPEDTAVYSCAAPRTYYSELTSPYDYWGQGTQVTVSS”, for which the “polyreactivity (PSR sort gate)” value is “low polyreactivity”. For “QVQLVESGGGVVQAGGSLRLSCAASGSTFYINTMGWSRPAPGKDRELVAAISWTGGRTYYAASVKGRFTISRANAKNTVYLQMNSLKPEDTAVYYCAAYYNIPDRRRVGYDYWGQGTQVTVSS”, the “polyreactivity (PSR sort gate)” value is given as “high polyreactivity”. “QVQLVESGGGVVQAGGSLRLSCAASGSTIYRYAMGWYRQAPGKEREFVPAITRTTARTYYADSVKGRFTFSRDNAKNTVYLQMNSLKPEDTAVYYCAADLYSWTWSGFRQYDSWGQGTQVTVSS”: the “polyreactivity (PSR sort gate)” value was “high polyreactivity”.

As to “QVQLVESGGGVVQAGGSLRLSCAASVRTFPGYAMGWYRQAPGKERELVAAISWSGTSTYYADSVKGRFTISRDYAKNTVYLQMNSLKPEYTAVYDCNKVYTYSAPYYYWGQGTQVTVSS”, the “polyreactivity (PSR sort gate)” value was “high polyreactivity”. Turning to “QVQLVESGGGVVQAGGSLRLSCPASGSIFETYVMGWYRPAPGIERELVAAINSGGSTNYADSVKGRFTISRDNAKNTVYLQMNRLKPEDTAVYYCNADWFTPAQPWYRSFIRYDYWGQGTQVTVSS”, the “polyreactivity (PSR sort gate)” value is on record as “low polyreactivity”. For the sequence “QVQLVESGGGVVQAGGSLSLSCAASGNTFPVYAMGWYRQASAKERELVATITSGGSTNYADSVKGRFTISRDNAKNTVYLQMNSLKPEDTAVYYCARRAVYSKRRYDYWGQGTQVTVSS”, the “polyreactivity (PSR sort gate)” value is on record as “low polyreactivity”. The value for “QVQLVESGGGVVQARGSRRLSCAASGRSYANAMGWYRQAPGKERELVAAITKNGGGTYYADSVKGRFTISRDNAKNTVYLQMNSLKPEDTAVYYCAASYSRWYYTAKQQEFDYWGQGTQVTVSS” was “high polyreactivity”; that for “QVQLVESGGPLVQSGGSLRIICPASGSTFRYYSMGWYRQAPGKERELVAAISYGGGITNYADSVKGRLTISRDNAKNTVYLQMNSLKPEDTAVYYCAAYDRITRYDYWGQGTQVTVSS” was “high polyreactivity”; that for “QVQLVESGGRIVQAGGSLRLRCAASGRTLLRYAMGWSRQAPGKERELVAAISSSGGRTYYADSVKGRFTISRDNEKNTVYLQMNSLKPEDTAVYYCAAKSSYVGHDYWGQGTQVTVSS” was “high polyreactivity”. For the sequence “QVQLVESGGRIVQAGGSLRLSCAASGRLFDRYAMGWYRQAPGQERELVAAISWSAGSTYYADSVKGRFTISRDNAKNTVYLQMNSLKPEDTAVYYCAVPARGTFLLRDGGRAEFDYWGQGTQVTVSS”, the “polyreactivity (PSR sort gate)” value is reported as “low polyreactivity”.

For the sequence “QVQLVESGGRIVQAGGSLRLSCAASGRTFLYNVMGWSRQAPGKERELVAAITSGGRTYYADSVKGRFTISRDNAKNTVYLQMNSLKPEDTAVYYCNADRQLYIYRYDYWGQGTQVTVSS”, the “polyreactivity (PSR sort gate)” value was “low polyreactivity”. Take “QVQLVESGGRLVKAGASHRLSCAASAITCGRNTRGWYRQAPGKARELVAAIDSGVNTYADSVKGRFTISRDNAKYTVYLQMTSLKPEDTSVYYWAFVGGEFSSYGYWGLGTQVTVSS”: the “polyreactivity (PSR sort gate)” value is “low polyreactivity”. On to “QVQLVESGGRLVQAGASLRLSCAASASIFASNAMGWYRHEPGKERELVAAINSGDSTNYADSVKGRFTISRDNAKNTVYLQMNSLKPEDTAVYYCARGLEERYDYWGQGTQVTVSS”, for which the “polyreactivity (PSR sort gate)” value is “low polyreactivity”. With “QVQLVESGGRLVQAGASLRLSCDASGRIFQWYAIGWYRQAPGKVRELVAAITSGSSTYYADSVKGRFTISRDNAKNSVYLQMNSLKPEDTAVYYCAAEAVYVSSWYDDYYYFRYDYWGQGTQVTVSS”, the “polyreactivity (PSR sort gate)” value was “high polyreactivity”. As for “QVQLVESGGRLVQAGCSLRLSCAASGSIFDVYAMGWYRPAPGKERELVAAISRGGRTYYADSVKGRFTISRDNAKNTVYLQMNSLKPEDTAVYYCAAVTRLDGNMDYWGQGTQVTVSS”, the entry is “high polyreactivity”; as for “QVQLVESGGRLVQAGFSLRLSCAASGSTFRWYALGWYRQAPGIESELVAAITSGGRTYYADSVKGRFTISRDNAKNPVYLQMSSLKPEATAGYYCAAQYADRGKRDYWGQGTQVTGSS”, “high polyreactivity”; as for “QVQLVESGGRLVQAGGILRLSCAASGFIFLSYAMGWYRQAPGKERELVAAITSNGGSTYYADSVKGRFTISRDNAKNTVYLQMNSLKPEDTSVYYCAARFSQGKVRMGYWGQGTQVTVSS”, “high polyreactivity”. In the case of “QVQLVESGGRLVQAGGILRLSCAASGRIFSANAMGWYRQAPGKERELVAAITSSGGSTYYADSVKGRFTISRDNAKNTVYLQMNSLKPEDTAVYYCAAESAAYGGGTSDAGYESDYLGQGTQVTVSS”, the “polyreactivity (PSR sort gate)” value was “low polyreactivity”. With “QVQLVESGGRLVQAGGSIRLSCAASGSTLNVNAMGGYRQAPGKERELVAAITSGGSTYYADSVKGRFTISRDNAKNTVYLQMNSLKPEDTAVYYCNKRRSWRPTYPIGGSGFYYWGQGTQVTVSS”, the “polyreactivity (PSR sort gate)” value is “low polyreactivity”.
